The results in this text go back to the nanobody polyreactivity screen of Harvey et al. (2022).

This series can be described thus: yeast display, Sf9 membrane polyspecificity reagent, FACS + sequencing; frameworks hold sequencing errors. In a few lines: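 In a synthetic yeast display library (Saccharomyces cerevisiae BJ5465), nanobody expression was induced with galactose for 36–48 hours. FACS gates were set low and high (top ~1%) using anti-HA fluorescence for expression and streptavidin fluorescence for binding of the Sf9 membrane reagent. Each polyreactivity label is drawn from the gate of origin.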
For “QFQLVDSGGGLVQAGGSLRLRSAASGRTFYPYVMAWYRQAPGKEREIVAAISYTGCSTYYADSVKGRFTISRDNAKNTVYLQMNSLKPEDTAVYYCNRAKYYSGGYRYHVDYWGQGTQVTVSS”, the “polyreactivity (PSR sort gate)” value is listed as “high polyreactivity”. Next, “QVQLVESGGGLVQAGGSLRLSCAASGSTFRYYGMGWYRQAPGKERELVATINRGGRTYYADSVKGRFTISRDNAKNTVYLQMNSLKPEDTAVYYCAADYYYYVACVHDDYWGQGTQVTGSS”: “low polyreactivity”. As to “QVQLVESGGGLVQAGGSLRLSCAASGSNFTYYAMGWYRQAPGKERELVAAISYSGGTTYYADSVKGRFTISRDNAKNTVYLQMNSLKPEDTAVYYCNVDADYESQWLSVGYDYWGQGTQVTVSS”, the “polyreactivity (PSR sort gate)” value is listed as “low polyreactivity”. Take “QVQLVESGGGLVQAGGSLRLSCAASGSTLGYYAMGWYRQAPGKERELVAAISWRTDSTYYADSVKGRFTISRDNAKNTVYLQMNSLKPEDTAVYYCAAQGAYDTYYAQTYGYWGQGTQVTVSS”: the “polyreactivity (PSR sort gate)” value is reported as “low polyreactivity”. Consider “QVQLVESGGGLVQAGGSLRLSCAASGFTFGSYAMGWYRQATGKERELVAVITRSGRTNYADSVKGRFTITRDNAKNTVFLQMNSMKPEDTAVYYCNADDVDDEVSPDLTEMDNWGLGTQVTVSS”, for which the “polyreactivity (PSR sort gate)” value is given as “low polyreactivity”. The value for “QVQLVESGGGLVQAGGSLRLSCAASGLTFVFYAMGWYRQAPGKERELVAAISSSGGSTNYADSVKGRFTISRDNAKNTVYLQMNSLKPEDTAVYYCNARGRSGGGRYDYWGQGTQVTVSS” was “high polyreactivity”.

On to “QVQVVESGGGLVQAGGRLRLSCAASGSTFKYYVMGWYRQAPGKERELVAAITRSGSTNYADSVKGRFRISRDNAKNTVYLQMNSLKPEDTAVYYCATDSLRLYGGKRDQYYWGQGTQVTVSS”, for which the “polyreactivity (PSR sort gate)” value is “low polyreactivity”. Regarding “QVQLVESGGGLVQAGGSLRLSCAASGSIFPWNAMGWYRQAPGKERELVAAISYSGTRTYYADSVKGRFTISRDNAKNTVYLQMNSLKPVDTAVYYCNARGYTRSYVKYDYWGQGTQVTVSS”, the “polyreactivity (PSR sort gate)” value is reported as “high polyreactivity”. The value for “QFQLVESGGGLVQAGGSHRLSCAASGSIFFINAMGWYRQAPGKERELVASISQSGVSTYYADSVKGRFTISRDNAKNTVYFEMNSLKPEDTAVYYCATGPVRRARYVWSYTYYYWGQGTQVTVSS” was “low polyreactivity”; that for “QVQLVESGGGLVQAGGSLRLSCAASGYTFGSNAMGWYRQAPGKERELVAAISNGGSTNYADSVKGRFTISRDNAKNTVYLQMTSLKPEDTAVYYCAAASRWHIGYWRYDYWGQGTQVTVSS” was “low polyreactivity”. On to “QVQLVESGGGLVQAGGSLRLSCAASGFTFYLYGMGGYRQAPGKERELVAAIRSGGSTNYADSVKGRFSISRDNAKNTVYLQMNSLKPEDTAVYYCATDIHSVHNNRDKPDYDYWGQGSQVTVSS”, for which the “polyreactivity (PSR sort gate)” value is “low polyreactivity”. The value for “QVQLVESGGGLLQAGGSLRLSCAASGITFDGNAMGWYRQAPWKERELVAGISGSGGGTYYADSVKGRFTISRDNAKNTVYLQMNSLKPEDTEVYYCAADTSTSHAYDYWGQGTQVTVSS” was “low polyreactivity”. As for “QVQLVESGGGLFQAGGSLRLSCAASGRIFNSNTMGWYRPAPGKDRELVARIDTGGGSTYADSVKGRFTISRDNAKNTVYLQMNSLQPEDTAVYHCNKIGRWRSWGSTSLVSMDYWGQGTKVTVSS”, the “polyreactivity (PSR sort gate)” value is recorded as “low polyreactivity”. With “QVELVESAGGLVQAGGSLRLSCAGSGSTFEYNAMGWYRQGPGKERELVASSTNYADSVKGRFTISRDNAKNTVYLKMNSLKPEDTAVYYCAREQGVNRYHDYWGQGTQVTVSS”, the “polyreactivity (PSR sort gate)” value is listed as “low polyreactivity”. Next, “QVQLVESGGGLVQAGGSLRLSCAASGSTFVNYAMGWYRQAPGKERELVAAITANGGRTYYADSVKGRFTISRDNAKNTVYLQMNSLKPEDTAVYYCNTESNLYRRRRNYWGQGTQVTVSS”: “low polyreactivity”; “QVQLVESGGGLVQAGGSLRLSCAASGSTFEKNAMGWYRQAPGKEREFVAAISRRGGSTYYADSVKGRFTISRDNAKNTVYLQMNSLKPEDTAVYYCAAQQLTWYSYRGDYWGQGTQVTVSS”: “high polyreactivity”; “QVQIVESGGGLVQAGGSLRLSCAASGSTFPTYAMGRYRQAPGKERELVAAITSGSGTNTYYADSVKGRFTISRDNAKNTVYLQMNSLKPEDTAVYYCAKSFRKKYGWGQGTQVTVSS”: “high polyreactivity”. With “QVQLVESGGGLVQAGGSLRLSCAASGSTFGSYAMGWYRQAPGKERELVAAITGSGGRTYYADSVKGRFTISRDNAKNRVYLQLNSLKPEDTAVYYCAKVPDYRFEYWGQGTQVTVSS”, the “polyreactivity (PSR sort gate)” value is on record as “high polyreactivity”. In the case of “QVQLVESGGGLVQAGGSLRLSCAASGITFYHYAMGWYRQAPGKERELVAAISRSGGSTSYADSVMGRFTISRDNAKNTVYLQMNSLKPEDTAVYYCAARLVRESEPLGYWGQGTQVTVSS”, the “polyreactivity (PSR sort gate)” value is given as “high polyreactivity”.

As for “QVQLVESGGGLVQAGGSLRLSCAASGSIFPHYAMGWSRQAPGKEREFVATISGSTGRTYYADSVKGRFTISRDNAKNTVYLQMNSLKPEDTAVYYCATSVGYYLPPIKYDYWGQGTQVTVSS”, the “polyreactivity (PSR sort gate)” value was “low polyreactivity”. The value for “QVQLVESGGGLVQAGGSLRLSCAASGRTFSFNGMGWYRQAPGKERELVAAISRRGTSTYYADSVKGRFTISRDNAKNTVYLQMNSLKPEDTAVYYCAARSTYTRREYDYWGQGTQVTVSS” was “high polyreactivity”. The value for “QVQLVESGGGLVQAGGSLRLSCAASGSIFGDYAMGWYRQAPGKEREFVAGITRRGGRTYYADSVKGRFTISRDNAKNTVYLQMHSLKPEDTAVYYCNAVYSSSLRSKYDYWGQGTQVTVSS” was “high polyreactivity”; that for “QVQLVESGGGLVQAGGSLRLSCAASGSIFELNAMGWYRQAPGKEMELVAAIRWRTGRTYYADSVKGRFTISRDNAKNTVYLLMNSLKPEDTAVYYCNADVTSLTRVHGRFIVSDYDYWGQGTQVTVSS” was “low polyreactivity”. The value for “QVQLVESGGGLVQAGGSLRLSCAASGFISGKYAMGWYRQAPGKERELVASIRSGGSTNYADSVKGRFTISRDNAKNTVYLQMNSLKPEDTAVYYCAKLRGSRGVIYDYWGQGTQVTVSS” was “high polyreactivity”. On to “QVQLVESGGGLVQAGGSLRLSCAASGYTFGKYVMGWYRQAPGKERELVAAISKSGSGTYYADSVKGRFTISRDNAKNTVYFQMNSLKPEDTAVYYFAARGYGFPELDYWGQGTQVTVSS”, for which the “polyreactivity (PSR sort gate)” value is reported as “high polyreactivity”. For “QVQIVESGGGLFQAGGSIRLSCSASGFTFAFYSMGWYRQAPGKERQLVAAISWSGGSTYYADSVKWRFTISRDNAKNTVYLQMNSLKPEDNAVYYCNTDRGPIGDHYDYWGQGTQVTVSS”, the “polyreactivity (PSR sort gate)” value is given as “high polyreactivity”. For “QVQLVESCGGLVQAGGSLRLSCAASGSIFQSYAMGWYRQAPGKERELVAAITERGGSTYYADSVKGRFTISRDNAKNTVYLQMNSLKPEDTAVYYCAADIYYWWGLSDLYTPTEGDYWGQGTQVTVSS”, the “polyreactivity (PSR sort gate)” value is reported as “low polyreactivity”.

For the sequence “QVQLVESGGGLVQAGGSLRLTCAASGRTFDYYAMGWYRQAPGKERELVAAIRGSGGSTYYADSVKGRFTISRDNAKNTVYLQMNSLKPEDTAVYYCATDPPYFRTPWEYDYWGQGTQVTVSS”, the “polyreactivity (PSR sort gate)” value is “low polyreactivity”.

For “QVQLVESGGGLVQAGGSLRLSCAASGSIFPYNAMGWYRQAPGKERELVAAISRSGGSTYYADSVKGRFTISRDNAKNTVYLQMNSLKPEDTAVYYCAAYSLYWRDDYWGQGTQVTVSS”, the “polyreactivity (PSR sort gate)” value is on record as “high polyreactivity”. The value for “QVQLVESGGGLVQAGGSLRLSCAASGRTFPRYVMGWNRQAPGKERELVAAISSSGGSTYYADSVKGRFTISRDNAKNTVYLQMNSLKPEDTAVYYCAAPSGGSKRYYYWGQGTKVTVSS” was “high polyreactivity”.
